# Substitutions are numbered along the chain they refer to.
# B1: Xpress-tagged JNK-1 (protein)
# chain: MEERLSTTSSYPSHPGRSVEEDHNTLLASSSISSIIRGTRGHLNNFIESVGNWLVPSSSGRDDDAVSLDSCQSVYSPVRHHINSGTGGGILMEPSSIHVPENYYSVTIGEAQMVVLKRYQNLRLIGSGAQGIVCSAFDTVRNEQVAIKKLSRPFQNVTHAKRAYRELKLMSLVNHKNIIGILNCFTPQKKLDEFNDLYIVMELMDANLCQVIQMDLDHERLSYLLYQMLCGIRHLHSAGIIHRDLKPSNIVVRSDCTLKILDFGLARTAIEAFMMTPYVVTRYYRAPEVILGMGYKENVDVWSIGCIFGELIRGRVLFPGGDHIDQWTRIIEQLGTPDRSFLERLQPTVRNYVENRPRYQATPFEVLFSDNMFPMTADSSRLTGAQARDLLSRMLVIDPERRISVDDALRHPYVNVWFDEIEVYAPPPLPYDHNMDVEQNVDSWREHIFRELTDYARTHDIYS
# B2: kinase-dead JNK-1 (APF) (protein)
# chain: B1 chain with T276A, Y278F
# Columns and labels:
# [1] = target: His-DAF-16 (C-terminal fragment), O16850
# Sequence of His-DAF-16 (C-terminal fragment), O16850 (O16850 whole entry, looked up, the tested form may be a part): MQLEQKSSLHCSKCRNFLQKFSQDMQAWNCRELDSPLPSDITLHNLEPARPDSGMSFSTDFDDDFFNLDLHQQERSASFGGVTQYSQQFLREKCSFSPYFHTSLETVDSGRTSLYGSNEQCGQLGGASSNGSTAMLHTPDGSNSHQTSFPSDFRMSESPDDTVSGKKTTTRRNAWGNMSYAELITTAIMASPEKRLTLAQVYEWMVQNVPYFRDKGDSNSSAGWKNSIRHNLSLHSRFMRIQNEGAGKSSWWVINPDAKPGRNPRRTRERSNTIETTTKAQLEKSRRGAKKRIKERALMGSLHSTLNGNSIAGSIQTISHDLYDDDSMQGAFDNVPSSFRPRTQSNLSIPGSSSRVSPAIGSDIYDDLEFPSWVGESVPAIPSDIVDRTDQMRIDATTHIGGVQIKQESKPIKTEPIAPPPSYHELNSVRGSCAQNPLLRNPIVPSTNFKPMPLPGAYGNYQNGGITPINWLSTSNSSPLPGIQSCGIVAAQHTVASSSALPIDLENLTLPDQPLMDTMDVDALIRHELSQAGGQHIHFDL
# [2] = target: His-DAF-16 (N-terminal fragment), O16850
# Sequence of His-DAF-16 (N-terminal fragment), O16850 (O16850 whole entry, looked up, the tested form may be a part): as above
# Sequence of GST-c-Jun (1-79) (P05412 1-79): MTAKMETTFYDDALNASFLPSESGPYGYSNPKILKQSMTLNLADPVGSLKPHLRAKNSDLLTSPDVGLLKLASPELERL
Protein,"in vitro kinase assay (phosphorylation, [γ-32P]ATP, autoradiography) [1]","in vitro kinase assay (phosphorylation, [γ-32P]ATP, autoradiography) (GST-c-Jun (1-79))","in vitro kinase assay (phosphorylation, [γ-32P]ATP, autoradiography) [2]"
B1,"The phosphorylation was only observed with the N-terminal (83-307) fragment of DAF-16, but not with the C-terminal (255-470) fragment (data not shown)",JNK-1 phosphorylates DAF-16 as well as the mammalian c-Jun protein used as a positive control,"Upon activation of JNK-1 by UV, JNK-1 phosphorylates DAF-16"
B2,–,–,The kinase-dead JNK-1 (APF) failed to phosphorylate DAF-16

# From patent US20060272039
